In patent publication US20250042970A1 (AURINIA PHARMACEUTICALS, published 2025):
Substitutions are numbered along the chain they refer to.

Experiments:
BAv66-Ig = target: T1, BAv66-Ig (human, UniProt P01859-1 99-326 = IgG part); test: BIACORE SPR
T1 construct: domain: Fc; also called Variant BAv66-Ig
Excerpt: (§1) The standard kinetic assay measures binding kinetics of trimeric ligand (e.g., human BAFF, cynomolgus monkey APRIL, mouse BAFF, or mouse APRIL) coated on sensor chips and dimeric analytes (e.g., variant BCMA-Ig fusion proteins) in the mobile phase. […] For human BAFF, cynomolgus monkey APRIL, and mouse APRIL measurements, mouse monoclonal antibody (IgG1) anti-FLAG M2 (Sigma Aldrich, Cat. No. F1804) was immobilized on CM3 sensor chips (GE Healthcare, Cat. No. BR-1005-41) according to the manufacturer's protocol. Antibody was diluted to 30 μg/ml in immobilization buffer (10 mM pH 5±0.20; GE Healthcare; GE Healthcare, Catalog No. BR-1003-51). […] Unreacted sites were quenched with 35 μl of 1M ethanolamine-HCl, pH 8.5 (GE Healthcare, GE Healthcare, Cat. No. BR-1000-50). This procedure typically yielded 3,000-4,000 response units (RU) of coupled antibody.
(§2) The fusion polypeptides were diluted in HBS-EP buffer and flowed over ligand-coated sensor chips. The variant BCMA-Ig and surrogate control fusion proteins were injected at three concentrations (1.5 nM, 15 nM, and 150 nM at 30 μl/min for 2 minutes per association phase) in a single binding cycle, followed by a 20 minute incubation with HBS-EP buffer containing no protein at the same flow rate. A similar protocol was followed for Z-TACI-Ig, except that the injections were at 4.5 nM, 45 nM, and 450 nM.
(§3) The analyses described above were performed on protein preparations of representative variant BCMA ECD-Ig fusion polypeptides, as well as the Z-TACI-Ig and [S40G]huBCMA ECD-Ig control fusion polypeptides, and the data is presented in Table 1.

Variant BAv1-12-Ig = target: T2, Variant BAv1-12-Ig (human, UniProt P01859-1 99-326 = IgG part); test: BIACORE SPR
T2 construct: domain: Fc; also called Variant 1-12-Ig
T2 sequence (P01859 other isoform, or with tags, fused parts or gaps mutant limits assumed): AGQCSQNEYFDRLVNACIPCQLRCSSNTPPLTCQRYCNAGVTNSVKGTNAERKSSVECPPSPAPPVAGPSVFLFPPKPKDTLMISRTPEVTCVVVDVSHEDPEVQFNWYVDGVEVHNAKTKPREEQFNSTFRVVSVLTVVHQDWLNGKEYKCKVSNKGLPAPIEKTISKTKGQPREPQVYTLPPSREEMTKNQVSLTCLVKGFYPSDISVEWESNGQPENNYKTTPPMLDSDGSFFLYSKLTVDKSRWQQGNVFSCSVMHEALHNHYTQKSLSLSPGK
Excerpt: as §1, §2, §3

Variant BAv3-10-Ig = target: T3, Variant BAv3-10-Ig (human, UniProt P01859-1 99-326 = IgG part); test: BIACORE SPR
T3 construct: domain: Fc; also called Variant 3-10-Ig; BAv3-10-PIg18
T3 sequence (P01859 other isoform, or with tags, fused parts or gaps mutant limits assumed): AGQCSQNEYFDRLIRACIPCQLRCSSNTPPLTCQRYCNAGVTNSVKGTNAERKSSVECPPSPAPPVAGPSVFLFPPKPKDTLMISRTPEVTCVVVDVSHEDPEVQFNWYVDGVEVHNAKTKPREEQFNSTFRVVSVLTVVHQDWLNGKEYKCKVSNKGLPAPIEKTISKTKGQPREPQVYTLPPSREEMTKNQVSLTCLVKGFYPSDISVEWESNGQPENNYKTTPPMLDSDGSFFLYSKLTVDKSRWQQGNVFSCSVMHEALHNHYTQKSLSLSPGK
Excerpt: as §1, §2, §3

Variant BAv8-9-Ig = target: T4, Variant BAv8-9-Ig (human, UniProt P01859-1 99-326 = IgG part); test: BIACORE SPR
T4 construct: domain: Fc; also called Variant 8-9-Ig; BAv8-9-PIg18
T4 sequence (P01859 other isoform, or with tags, fused parts or gaps mutant limits assumed): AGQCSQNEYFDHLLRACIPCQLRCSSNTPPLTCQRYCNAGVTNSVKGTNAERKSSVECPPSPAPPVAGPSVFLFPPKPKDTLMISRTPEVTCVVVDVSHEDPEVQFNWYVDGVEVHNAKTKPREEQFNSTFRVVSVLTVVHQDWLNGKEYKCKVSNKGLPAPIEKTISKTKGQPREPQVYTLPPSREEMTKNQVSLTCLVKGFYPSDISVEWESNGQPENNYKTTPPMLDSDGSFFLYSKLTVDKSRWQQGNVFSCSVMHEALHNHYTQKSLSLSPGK
Excerpt: as §1, §2, §3

Variant BAv8-10-Ig = target: T5, Variant BAv8-10-Ig (human, UniProt P01859-1 99-326 = IgG part); test: BIACORE SPR
T5 construct: domain: Fc; also called Variant 8-10-Ig; BAv8-10-PIg18
T5 sequence (P01859 other isoform, or with tags, fused parts or gaps mutant limits assumed): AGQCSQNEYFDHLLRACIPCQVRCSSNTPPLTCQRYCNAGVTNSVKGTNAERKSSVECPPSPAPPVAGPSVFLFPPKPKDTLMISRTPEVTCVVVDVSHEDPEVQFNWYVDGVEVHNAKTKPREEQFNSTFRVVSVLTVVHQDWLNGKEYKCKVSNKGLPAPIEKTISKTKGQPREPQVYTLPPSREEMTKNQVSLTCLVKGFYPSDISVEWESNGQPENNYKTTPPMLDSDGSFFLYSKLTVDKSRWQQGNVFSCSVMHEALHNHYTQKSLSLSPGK
Excerpt: as §1, §2, §3

Variant BAv9-1-Ig = target: T6, Variant BAv9-1-Ig (human, UniProt P01859-1 99-326 = IgG part); test: BIACORE SPR
T6 construct: domain: Fc; also called Variant 9-1-Ig; BAv9-1-pIg18
T6 sequence (P01859 other isoform, or with tags, fused parts or gaps mutant limits assumed): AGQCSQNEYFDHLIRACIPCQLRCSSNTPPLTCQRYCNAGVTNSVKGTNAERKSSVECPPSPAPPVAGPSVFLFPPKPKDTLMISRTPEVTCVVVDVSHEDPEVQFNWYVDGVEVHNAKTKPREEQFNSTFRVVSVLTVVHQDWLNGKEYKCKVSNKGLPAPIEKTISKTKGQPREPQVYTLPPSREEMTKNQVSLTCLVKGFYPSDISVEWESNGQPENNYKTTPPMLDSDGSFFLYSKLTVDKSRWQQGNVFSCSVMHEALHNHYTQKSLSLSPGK
Excerpt: as §1, §2, §3

Variant BAv9-5-Ig = target: T7, Variant BAv9-5-Ig (human, UniProt P01859-1 99-326 = IgG part); test: BIACORE SPR
T7 construct: domain: Fc; also called Variant 9-5-Ig; BAv9-5-PIg18
T7 sequence (P01859 other isoform, or with tags, fused parts or gaps mutant limits assumed): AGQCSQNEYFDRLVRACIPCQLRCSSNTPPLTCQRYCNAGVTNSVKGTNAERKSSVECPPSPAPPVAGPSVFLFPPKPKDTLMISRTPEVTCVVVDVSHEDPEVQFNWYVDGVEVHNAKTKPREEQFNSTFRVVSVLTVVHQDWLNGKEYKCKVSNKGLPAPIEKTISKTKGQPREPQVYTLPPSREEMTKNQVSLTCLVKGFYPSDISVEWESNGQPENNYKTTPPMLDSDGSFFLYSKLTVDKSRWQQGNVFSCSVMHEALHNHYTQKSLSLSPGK
Excerpt: as §1, §2, §3

Variant BAv11-6-Ig = target: T8, Variant BAv11-6-Ig (human, UniProt P01859-1 99-326 = IgG part); test: BIACORE SPR
T8 construct: domain: Fc; also called Variant 11-6-Ig; BAv11-6-PIg18
T8 sequence (P01859 other isoform, or with tags, fused parts or gaps mutant limits assumed): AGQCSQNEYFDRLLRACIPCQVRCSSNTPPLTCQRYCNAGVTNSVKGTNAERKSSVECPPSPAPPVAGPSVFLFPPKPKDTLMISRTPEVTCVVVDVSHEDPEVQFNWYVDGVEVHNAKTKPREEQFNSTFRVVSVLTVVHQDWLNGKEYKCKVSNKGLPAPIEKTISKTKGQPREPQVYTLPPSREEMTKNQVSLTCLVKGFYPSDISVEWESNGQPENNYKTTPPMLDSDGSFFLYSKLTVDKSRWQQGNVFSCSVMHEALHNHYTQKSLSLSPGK
Excerpt: as §1, §2, §3

Variant 50238475-Ig = target: T9, Variant 50238475-Ig (human, UniProt P01859-1 99-326 = IgG part); test: BIACORE SPR
T9 construct: domain: Fc; also called Parent 9; Variant 50238475-PIg18
T9 sequence (P01859 other isoform, or with tags, fused parts or gaps mutant limits assumed): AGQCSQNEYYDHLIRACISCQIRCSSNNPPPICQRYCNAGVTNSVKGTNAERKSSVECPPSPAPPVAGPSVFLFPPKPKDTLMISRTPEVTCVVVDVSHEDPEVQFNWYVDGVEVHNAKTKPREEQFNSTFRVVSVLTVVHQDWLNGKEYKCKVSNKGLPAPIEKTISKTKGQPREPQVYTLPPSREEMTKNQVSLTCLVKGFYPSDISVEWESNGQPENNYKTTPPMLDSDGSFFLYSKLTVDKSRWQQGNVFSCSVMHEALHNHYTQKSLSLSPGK
Excerpt: as §1, §2, §3

FLAG-tagged human BAFF = target: T10, FLAG-tagged human BAFF (human, UniProt Q9Y275 134-285, limits assumed); test: BIACORE SPR; NB = No binding
T10 construct: used in BIACORE (Ex. 9) and KINEXA (Ex. 11); also called huBAFF
Procedure: (§4) For human BAFF, cynomolgus monkey APRIL, and mouse APRIL measurements, mouse monoclonal antibody (IgG1) anti-FLAG M2 (Sigma Aldrich, Cat. No. F1804) was immobilized on CM3 sensor chips (GE Healthcare, Cat. No. BR-1005-41) according to the manufacturer's protocol. Antibody was diluted to 30 μg/ml in immobilization buffer (10 mM pH 5±0.20; GE Healthcare; GE Healthcare, Catalog No. BR-1003-51). […] Unreacted sites were quenched with 35 μl of 1M ethanolamine-HCl, pH 8.5 (GE Healthcare, GE Healthcare, Cat. No. BR-1000-50). This procedure typically yielded 3,000-4,000 response units (RU) of coupled antibody.
as §2
(§5) Using available information from the structures and published literature, several residues in BAv8-10 were targeted for substitution with conserved as well as non-conserved residues and their effect on BAFF and APRIL binding was assessed by BIACORE.

[1] = target: T11, FLAG-tagged cynomolgous APRIL (cynomolgus monkey, UniProt A0ACM8R0G4 110-250 (rhesus entry)); test: BIACORE SPR; NB = No binding
T11 construct: FLAG-tagged, expressed with TPA signal peptide; also called cyAPRIL
T11 sequence: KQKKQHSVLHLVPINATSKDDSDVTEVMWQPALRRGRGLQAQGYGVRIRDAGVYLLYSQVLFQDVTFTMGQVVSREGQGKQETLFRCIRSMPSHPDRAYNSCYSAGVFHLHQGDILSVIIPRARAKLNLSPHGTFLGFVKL
Procedure: as §4, §2, §5

T1 sequence (P01859 other isoform, or with tags, fused parts or gaps limits assumed): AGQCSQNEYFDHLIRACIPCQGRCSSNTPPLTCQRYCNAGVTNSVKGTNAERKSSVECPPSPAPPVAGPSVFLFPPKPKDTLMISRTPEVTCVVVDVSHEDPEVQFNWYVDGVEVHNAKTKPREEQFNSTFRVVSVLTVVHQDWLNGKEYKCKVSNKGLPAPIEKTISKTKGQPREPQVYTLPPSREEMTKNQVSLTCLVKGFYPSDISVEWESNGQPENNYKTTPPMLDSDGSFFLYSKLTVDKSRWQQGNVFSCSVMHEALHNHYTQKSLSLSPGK

B1: 6HIS-tagged murine BAFF (ligand, mouse, UniProt Q9WU72 127-309, looked up)
chain: AFQGPEETEQDVDLSAPPAPCLPGCRHSQHDDNGMNLRNIIQDCLQLIADSDTPTIRKGTYTFVPWLLSFKRGNALEEKENKIVVRQTGYFFIYSQVLYTDPIFAMGHVIQRKKVHVFGDELSLVTLFRCIQNMPKTLPNNSCYSAGIARLEEGDEIQLAIPRENAQISRNGDDTFFGALKLL
notes: also called mBAFF; muBAFF
Q: How did the Kd (BAv66-Ig) turn out when B1 was run?
A: 0.0623 nM

Q: What about the Kd (Variant BAv1-12-Ig) of the same binder?
A: 0.0339 nM

Q: What about the Kd (Variant BAv3-10-Ig) of the same binder?
A: 0.0149 nM

Q: What about the Kd (Variant BAv8-9-Ig) of the same binder?
A: 0.0149 nM

Q: What about the Kd (Variant BAv8-10-Ig) of the same binder?
A: 0.0171 nM

Q: And the Kd (Variant BAv9-1-Ig)?
A: 0.015 nM

Q: What about the Kd (Variant BAv9-5-Ig) of the same binder?
A: 0.0216 nM

Q: And the Kd (Variant BAv11-6-Ig)?
A: 0.0181 nM

Q: And the Kd (Variant 50238475-Ig)?
A: 0.0264 nM

B2: BAv54-Ig (Fc fusion)
chain: AGQCSQNEYFDHLSRACIPCQVRCSSNTPPLTCQRYCNAGVTNSVKGTNA
notes: not shown: PIg18: human IgG2 Fc, Ser at Fc positions 4, 5, 11 (native Cys)
Q: Does B2 bind (FLAG-tagged human BAFF)?
A: no binding (tested: 150 nM)

Q: Does B2 bind [1]?
A: no binding (tested: 150 nM)

B3: BAv67-Ig (Fc fusion)
chain: B2 chain with H12S, S14V, I18Q
notes: as for B2
Q: Does B3 bind (FLAG-tagged human BAFF)?
A: no binding (tested: 150 nM)

Q: Does B3 bind [1]?
A: no binding (tested: 150 nM)

B4: BAv68-Ig (Fc fusion)
chain: B2 chain with H12S, S14I, I18Q
notes: as for B2
Q: Does B4 bind (FLAG-tagged human BAFF)?
A: no binding (tested: 150 nM)

Q: Does B4 bind [1]?
A: no binding (tested: 150 nM)

B5: BAv69-Ig (Fc fusion)
chain: B2 chain with S14V, I18Q, V22L
notes: as for B2
Q: Does B5 bind (FLAG-tagged human BAFF)?
A: no binding (tested: 150 nM)

Q: Does B5 bind [1]?
A: no binding (tested: 150 nM)
